Results as given in the supplement of paper PMC6757056.
± gives the standard deviation of the averaged measurements.

B1: library; a variant is named by its letters at N, in order (parent)
chain: GCUGUCACCGAGAAACUGUGAAGUAUAUCUUAAACCUGGGCACUUAAAAGAUAUAUGGAGUUAGUAGUGCAACCUGCUCGGUCUGAUGAGUCCNNNNNNGGACGAAACAGC

What was measured:
[1] = variants of: B1; assay: FACS-Seq fitted mean relative fluorescence mCherry/BFP without ligand (log10 relative fluorescence); HEK293T; ligand: cyclic di-GMP (c-di-GMP-II aptamer); higher = higher reporter protein expression; settings: ligand present: no
Procedure, shortened: (§1)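 Fluorescence figures are normalized fitted normal means of sequenced bin counts. Enriched, lentivirally transduced HEK293T libraries with a ribozyme-switch mCherry reporter and EF1α-BFP were held 48 h with or without ligand, then sorted into 6 mCherry/BFP bins. PCR-amplified, barcoded genomic DNA from each bin was sequenced on MiSeq. Means of log10(mCherry/BFP) were scaled to five spiked-in control ribozymes.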

[2] = variants of: B1; assay: normalized RNA/DNA level without ligand (relative to sTRSVctl = 100) (log10 (% of sTRSVctl)); HEK293T; ligand: cyclic di-GMP (c-di-GMP-II aptamer); higher = less ribozyme self-cleavage, higher mRNA level; settings: reporter: mCherry (pCS4076), ligand present: no
Description: (§2)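 Hammerhead (sTRSV) ribozyme switch libraries with a ligand aptamer grafted on stem I and a randomized N4-6 loop II, cloned into the 3' UTR of mCherry and transiently transfected into HEK293T cells; RNA-Seq 72 h post transfection with ligand added 1 h before transfection; RNA read count / plasmid DNA read count normalized to the non-cleaving sTRSVctl (x100), log10; sequences with >100 DNA reads. FACS-Seq: lentiviral library sorted into 6 bins after 48 h ligand, log-normal fit mean of mCherry/BFP scaled to controls. Printed sequences are partial switch sequences.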

[3] = variants of: B1; assay: FACS-Seq fitted mean relative fluorescence mCherry/BFP with ligand (log10 relative fluorescence); HEK293T; ligand: cyclic di-GMP (c-di-GMP-II aptamer); ligand concentration (+) FACS-Seq: 1 mM; higher = higher reporter protein expression; settings: ligand present: yes
Procedure, shortened: as §1

[4] = variants of: B1; assay: normalized RNA/DNA level with ligand (relative to sTRSVctl = 100) (log10 (% of sTRSVctl)); HEK293T; ligand: cyclic di-GMP (c-di-GMP-II aptamer); ligand concentration (+) RNA-Seq: 1 mM; higher = less ribozyme self-cleavage, higher mRNA level; settings: reporter: mCherry (pCS4076), ligand present: yes
Description: as §2

Row | Variant | FACS-Seq fitted mean (log10) [1] | normalized RNA/DNA level without ligand (log10) [2] | FACS-Seq fitted mean (log10) [3] | normalized RNA/DNA level with ligand (log10) [4]
1 | GCUGUCACCGAGAAACUGUGAAGUAUAUCUUAAACCUGGGCACUUAAAAGAUAUAUGGAGUUAGUAGUGCAACCUGCUCGGUCUGAUGAGUCCAAGUUAGGACGAAACAGC [AAGUUA] | -0.499 ± 0.08 | 1.529 ± 0.0062 | -0.215 ± 0.06 | 1.74 ± 0.14
2 | GCUGUCACCGAGAAACUGUGAAGUAUAUCUUAAACCUGGGCACUUAAAAGAUAUAUGGAGUUAGUAGUGCAACCUGCUCGGUCUGAUGAGUCCCAGUUAGGACGAAACAGC [CAGUUA] | -0.724 ± 0.01 | 1.28 ± 0.15 | -0.4923 ± 0.0038 | 1.42 ± 0.041
3 | GCUGUCACCGAGAAACUGUGAAGUAUAUCUUAAACCUGGGCACUUAAAAGAUAUAUGGAGUUAGUAGUGCAACCUGCUCGGUCUGAUGAGUCCCAGUUCGGACGAAACAGC [CAGUUC] | -0.4497 ± 0.0028 | 1.66 ± 0.038 | -0.1164 ± 0.00072 | 1.82 ± 0.097
4 | GCUGUCACCGAGAAACUGUGAAGUAUAUCUUAAACCUGGGCACUUAAAAGAUAUAUGGAGUUAGUAGUGCAACCUGCUCGGUCUGAUGAGUCCUAGUGAGGACGAAACAGC [UAGUGA] | -0.51 ± 0.069 | 1.626 ± 0.0075 | -0.218 ± 0.016 | 1.77 ± 0.15
5 | GCUGUCACCGAGAAACUGUGAAGUAUAUCUUAAACCUGGGCACUUAAAAGAUAUAUGGAGUUAGUAGUGCAACCUGCUCGGUCUGAUGAGUCCUAGUGGGGACGAAACAGC [UAGUGG] | -0.133 ± 0.082 | 1.71 ± 0.064 | 0.162 ± 0.086 | 1.84 ± 0.069
6 | GCUGUCACCGAGAAACUGUGAAGUAUAUCUUAAACCUGGGCACUUAAAAGAUAUAUGGAGUUAGUAGUGCAACCUGCUCGGUCUGAUGAGUCCGAGUUGGGACGAAACAGC [GAGUUG] | -0.0245 ± 0.095 | 1.8 ± 0.04 | 0.211 ± 0.021 | 1.92 ± 0.12
7 | GCUGUCACCGAGAAACUGUGAAGUAUAUCUUAAACCUGGGCACUUAAAAGAUAUAUGGAGUUAGUAGUGCAACCUGCUCGGUCUGAUGAGUCCGAGUUAGGACGAAACAGC [GAGUUA] | -0.199 ± 0.084 | 1.74 ± 0.033 | -0.129 ± 0.019 | 1.82 ± 0.14
